We go through four molecules from patent US11034736B2, “Anti-viral cnidarins” (priority 2014, dated 2021).

For data set [1], the system named is HIV-1US/92/727. The data set is described as follows: Anti-HIV evaluation in PHA-stimulated human PBMCs, reverse transcriptase in supernatant. It is filed as cell-based. The following applies: HIV-1US/92/727, human PBMCs, 7 days. As for the experimental part: (§1) The cultures were incubated for 7 days at 37° C./5% CO2. Efficacy of the compounds was evaluated by measuring the amount of reverse transcriptase in the culture supernatant and toxicity was evaluated using XTT to measure cell viability. AZT was evaluated in parallel as an assay control.

Data set [2] can be described thus: in vitro. The following applies: human. As for the experimental part: as §1
Data set [3] relates to HIV-1RF. The data set is described as follows: XTT-tetrazolium anti-HIV assay, HIV-1RF in CEM-SS cells. The data set is classed as cell-based. Particulars: for EC50: HIV-1RF, T-tropic laboratory strain, CEM-SS cells, XTT, 6 days. The method, then:
(§2) A 2,3-bis-[2-methoxy-4-nitro-5-sulfophenyl]-2H-tetrazolium-5-carboxanilide inner salt (XTT)-tetrazolium-based assay was used to determine the anti-HIV activity of CNID-1, -2 and -3 against a T-tropic laboratory strain (HIV-1RF) in T-lymphoblastic CEM-SS cells as described previously (Gulakowski et al., J. Virol. Methods, 33: 87-100 (1991)). CEM-SS cells were maintained in RPMI 1640 media without phenol red and supplemented with 10% fetal bovine serum (BioWhittaker), 2 mM L-glutamine (BioWhittaker), and 50 μg/ml gentamicin (BioWhittaker) (complete medium). Exponentially growing cells were washed and resuspended in complete medium, and a 50 μl aliquot containing 5×10^3 cells was added to individual wells of a 96-well round-bottom microtiter plate containing serial dilutions of the respective cnidarin protein in a volume of 100 μl of medium. Stock supernatants of HIV-1RF were diluted in complete medium to yield sufficient cytopathicity (80-90% cell kill in 6 days), and a 50 μl aliquot was added to appropriate wells. Plates were incubated for 6 days at 37° C. and then stained for cellular viability using XTT.
(§3) The HIV reverse transcriptase inhibitor 3′-Azido-3′-deoxythymidine (AZT) was used as a positive control. All assays were carried out in triplicate for all viruses and cells.
For orientation: Tetrazolium dyes change colour on reduction, which living cells bring about.

Data set [4] deals with CEM-SS cells. The data set is described as follows: Direct toxicity to uninfected CEM-SS control cells (XTT). It is filed as cell-based, human. As for the experimental part:
as §2, §3

The test system of data set [5] is Macrophage. The data set is described as follows: Cell viability of monocyte/macrophage cultures (CellTiter formazan dye reduction). The data set is classed as cell-based, human. Particulars: macrophages. The text has this:
(§4) To test the anti-HIV activity of CNID1 against HIV primary isolates in fresh human cells, monocyte-tropic HIV-1 strain Ba-L was obtained from the NIAID AIDS Research and Reference Reagent Program (National Institutes of Health, Bethesda, Md.). The low passage HIV-1 pediatric isolate ROJO was derived as described previously (Buckheit et al., AIDS Res. Hum. Retroviruses, 10: 1497-1506 (1994)). Human peripheral blood mononuclear cells (PBMCs) and macrophages were isolated from hepatitis and HIV seronegative donors following Ficoll-Paque centrifugation as described elsewhere (Gartner & Popovic, Techniques in HIV Research, Aldovini, A. and Walker B., eds., pp. 59-63, Stockton Press, New York, 1990). Antiviral assays were carried out with 3-day-old phytohaemagglutinin/interleukin-2 stimulated PBMCs or 6-day-cultured monocyte/macrophages. […] HIV-1 replication in PBMC (ROJO) or monocyte macrophage (Ba-L) cultures were determined by measurement of reverse transcriptase activity (Buckheit et al., Antiviral Res., 21: 247-265 (1993)) in the supernatants or p24 antigen expression by ELISA (Coulter, Hialeah, Fla.), respectively. Cell viability by formazan dye reduction was determined in replicated cultures using the CellTiter reagent (Promega, Madison, Wis.). […]

The test system of data set [6] is HIV-1ROJO. The data set is described as follows: HIV-1 ROJO replication in human PBMC cultures, supernatant reverse transcriptase activity. It is filed as cell-based. Particulars: T-tropic primary isolate.
Source text: as §4

Data set [7] concerns PBMC. Nature of the data set: Cell viability of PBMC cultures (CellTiter formazan dye reduction). The data set is classed as cell-based, human.
Source text: as §4

In data set [8] the test system is HIV-1IIIB. The data set is described as follows: Viral attachment assay, cell-associated p24 antigen in HeLa CD4 LTR β-gal cells. The data set is classed as cell-based. The method, then:
(§5) Attachment and fusion assays were performed in HeLa-CD4-LTR-β-galactosidase cell lines as described previously (Gartner & Popovic, (1990), supra) with the following modifications. Following the interaction of HIV-1IIIIIB with HeLa CD4 LTR β-gal cells, viral attachment to HeLa CD4 LTR β-gal cells was detected as cell-associated p24 antigen following a 1 hour adsorption of virus and vigorous washing for removal of unbound virus. Fusion of HIV-1IIIIB with HeLa CD4 LTR β-gal cells was detected by chemiluminescence using a single-step lysis and detection method (Tropix Gal-screen, Bedford, Mass.) and results reported as EC50 values. Chicago Sky Blue, a polysulfonic acid dye inhibitor of HIV attachment and fusion, was used as a positive control for all assays (Clanton et al., J. Acquired Immune Defic. Syndr., 5: 771-781 (1992)).

Data set [9] relates to HIV-1IIIB. Nature of the data set: Viral fusion assay, chemiluminescence in HeLa CD4 LTR β-gal cells. It is filed as cell-based. The method, then:
as §5

Data set [10] relates to HeLa CD4 LTR β-galactosidase cells. The data set is described as follows: Cytotoxicity in the attachment and fusion assays. It is filed as cell-based. As for the experimental part: as §3, §5
Data set [11] relates to human PBMCs. Nature of the data set: Toxicity in PHA-stimulated human PBMCs, XTT cell viability. The following applies: human PBMCs, XTT, 7 days. The method, then: as §1
Data set [12] addresses T1, HIV-1IIIB gp120 (Human immunodeficiency virus type 1 group M subtype B, UniProt P04578). The following applies: ELISA, 100 ng/well gp120. The method, then:
High protein binding Greiner 96-well plates (VWR, Bridgeport, N.J.) were coated with 1 pmol/well of recombinant HIV-1IIIIB gp120 (Immuno Diagnostics, Woburn, Mass.) or recombinant HIV-1HXB2 gp41 (Vybion Inc., Ithaca, N.Y.) at 4° C. overnight. The wells were emptied and then blocked with 200 μl/well of 3% non-fat dry milk (Bio-Rad, Hercules, Calif.) blocking solution for 2 hrs. A control plate was incubated with blocking solution only. After washing three times with PBST, 0.5-log10 serial dilutions of rCNID-1-Trx were added to triplicate wells of gp120−, gp41− and the blocking solution control plate, and the plates were incubated for 2 hrs. The plates were washed with PBST and 100 W/well of a 1:250 dilution of polyclonal rabbit anti-CNID-1 antibody was added and allowed to incubate for 1 hr, followed by three washes with PBST. Goat anti-rabbit (H+L), peroxidase conjugated secondary antibody (Thermo Fisher Scientific Inc., Rockford, Ill.) was added to each well (100 μl/well of a 1:1000 dilution) and further incubated for 1 hr, followed by three washes with PBST. The TMB 2-component Microwell peroxidase substrate kit (KPL Inc., Gaithersburg, Md.) was used for peroxidase detection: 100 W/well, incubation for 5-10 min and the reaction was stopped by addition of 0.5M HCl (100 W/well) before reading the absorbance at 450 nm.
Briefly, 100 ng/wells of glycosylated recombinant HIV-1IIIB gp120 (Immuno Diagnostics, Woburn, Mass.) or nonglycosylated HIV-1 gp120 (MyBioSource LLC, San Diego, Calif.) was added to the wells of two 96-well plates, and incubated overnight at 4° C. The plates were washed and blocked as previously described. Serial dilutions of rCNID-1-Trx were added (100 W/well); incubation done for 2 hrs. The plates were then washed and visualized using anti-CNID-1 polyclonal antibodies as above.
Background: An ELISA detects its analyte on a solid surface through an enzyme-linked reagent.

In data set [13] the target is T1, HIV-1IIIB gp120. The method, then: Recombinant CNID-1 (in fusion with Trx and rEK cleaved forms of rCNID-1) and recombinant HIV-1IIIIB gp120 (Immuno Diagnostics, Woburn, Mass.) controls were resolved on 4-12% Bis-Tris pre-cast SDS-PAGE gels (Life Technologies, Grand Island, N.Y.) and blotted onto polyvinylidine difluoride membranes. Membranes were blocked with 3% BSA for 2 hours. For CNID-1 detection, the membrane was incubated overnight with rabbit anti-CNID-1 (1:2000 dilution). For detection of rCNID-1 binding to gp120, membranes were incubated overnight with 1 μg/ml rgp120, then washed thrice with PBST before being incubated with polyclonal rabbit anti-gp120 (1:1000 dilution) overnight. Membranes were washed three times with PBST and further incubated with goat anti-rabbit (H+L), peroxidase conjugated secondary antibody (Thermo Fisher Scientific Inc., Rockford, Ill.) at a 1:1000 dilution for 1 hr. After washing with PBST, signals were detected on Hyblot CL autoradiography film (Denville Scientific, Metuchen, N.J.) using the SignalFire ECL reagent system (Cell Signaling Technology Inc., Danvers, Mass.) according to the manufacturer's protocol.

One may read the EC50 as the concentration needed to bring the measured effect to its halfway point.

Values joined by “and” are separate entries in the source; they are usually repeats but may differ in a detail not shown here. Equal values may be shown once. Read-outs that look alike come from different tables or passages of the source. Where only a bound is given, the exact number is not on record here.

Turning to `Cc1cn([C@H]2C[C@H](N=[N+]=[N-])[C@@H](CO)O2)c(=O)[nH]c1=O` [AZT, 3′-Azido-3′-deoxythymidine, reference compound], in data set [1] (Human immunodeficiency virus 1, PBMC, 168 h, read-out: EC50), the EC50 was 1.88 nM. This molecule showed a CC50 at 7 days in data set [2] greater than 1000 nM.

B1: CNID-3: HIV-inhibitory protein from soft coral Synthecium sp.; 170 amino acids, 17,963 Da, SEQ ID NO: 3 (protein)
chain: GKSAYPGQITSDVPFVTFDVPFDGVNIPQDVRFTIATVNGGKLALYNAKLGDPANNTIVLESDGDHPIPGTFDDPKGRGLDYAFGGLLLFSFHNFVGHKKLYREPDSDITADFPPGLGGSSAITGEGSTVQLYTGIDFTGISEIMPVNTKRNFVVAFGNEFKSVSPTGGG
With B1, the EC50 in data set [3] is 0.114 nM; in [6] it was 1.55 nM and 1.5 nM; in [8] (read-out: Inhibition of Attachment EC50), greater than 55.7 nM; in data set [9] (read-out: Inhibition of Fusion EC50), 2.06 nM; in data set [1] it was 0.0160 µg/mL. In addition, the CC50 in data set [4] is greater than 199 nM; in [5] it was 4.62 nM; in data set [7] it was 155 nM; in [10] (attachment assay, read-out: Inhibition of Attachment CC50), greater than 55.7 nM; in data set [10] (fusion assay, read-out: Inhibition of Fusion CC50) it was greater than 55.7 nM. The “Inhibition of viral attachment to the cell” value in data set [8] is listed as “not attachment”. Further, the “Inhibition of viral fusion” value in data set [9] is on record as “inhibit HIV viral fusion”. This molecule came in with a TC50 in data set [11] greater than 0.5 µg/mL.

B2: rCNID-1-Trx: thioredoxin-hexahistidine-CNID-1 fusion protein expressed in E. coli (protein)
chain: GRATLGQLKTSTIPPVTFDVPFDGANIPQDVRFTIATVNGGKGALYNAELGESAGHTIVLESDGDHPIPGTFDPKSGRGLDYLPRGLVLFSSHNYVGNMKMYTEPDSDITADFPPGTPFGVSSAITGEGSAFQLNTGIDHTGEFEIIPPNTKRNLAGVFDNEIRSVSPTGGK
modifications: left off: large carriers; small tags and cut ends
notes: thioredoxin-hexahistidine-CNID-1 fusion protein expressed in E. coli
In the case of B2, the “Activity after extraction and refolding from inclusion bodies” value was “low-to-partially active” in data set [3] (CaCl2 presence) and “inactive” in data set [3] (absence of CaCl2). Moreover, the “Binding to gp120” value in [12] was “binds to HIV-1 glycoproteins, gp120”. Besides, the “Binding to gp120 by immunoblot” value in [13] is recorded as “specific binding”.

B3: rCNID-1 truncated forms: truncated forms of rCNID-1 (~14-16 kDa) from enterokinase digestion of rCNID-1-Trx (protein)
chain: GRATLGQLKTSTIPPVTFDVPFDGANIPQDVRFTIATVNGGKGALYNAELGESAGHTIVLESDGDHPIPGTFDPKSGRGLDYLPRGLVLFSSHNYVGNMKMYTEPDSDITADFPPGTPFGVSSAITGEGSAFQLNTGIDHTGEFEIIPPNTKRNLAGVFDNEIRSVSPTGGK
B3 displayed an EC50 in data set [3] of 45 to 150 nM. The “Binding to gp120 by immunoblot” value in [13] is listed as “specific binding”.
